This assay addresses human Rab7 Q67L (residues 2–195), GTP-loaded (human) (UniProt P51149). Description: crystal structure; purified PDZD8 CC and Rab7 Q67L (1 mM GTP) mixed 1:1 at total 10 mg/ml, incubated 1 h at room temperature; crystals in 0.1 M Tris-HCl pH 8.0, 25% PEG 1000, 0.1 M NaCl; space group P6(5), 2.1 Å.

human Rab7 Q67L (residues 2–195), GTP-loaded (human), sequence (P51149 2-195 Q67L): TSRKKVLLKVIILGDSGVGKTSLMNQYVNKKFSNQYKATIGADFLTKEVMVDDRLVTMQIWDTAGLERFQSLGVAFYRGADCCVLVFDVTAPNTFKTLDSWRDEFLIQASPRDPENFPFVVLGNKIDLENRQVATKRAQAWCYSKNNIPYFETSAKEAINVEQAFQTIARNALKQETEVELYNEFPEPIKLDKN
human PDZD8 C-terminal coiled-coil (CC) domain, residues 994–1123 (crystallisation construct), sequence (Q8NEN9 994-1123): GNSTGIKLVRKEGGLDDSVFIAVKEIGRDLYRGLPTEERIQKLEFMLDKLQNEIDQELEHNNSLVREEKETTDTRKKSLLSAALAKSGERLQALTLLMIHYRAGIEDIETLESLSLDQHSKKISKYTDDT

“human PDZD8 C-terminal coiled-coil (CC) domain, residues 994–1123 (crystallisation construct) (from UniProt Q8NEN9 994-1123) (domain or fragment)” had a stoichiometry N (Rab7 per PDZD8 CC) of 2.

For the origin of these results see article PMC8458453.
